From paper PMC10726252, “Structure and biochemical characterization of L-2-hydroxyglutarate dehydrogenase and its role in the pathogenesis of L-2-hydroxyglutaric aciduria” (The Journal of Biological Chemistry, 2023)

Assays:
[1] = molecular target: T1, dmL2HGDH (Drosophila melanogaster, UniProt Q9VJ28); experiment: crystal structure, […] Å; absorbance at […] nm; format: binding; conditions: FAD co-purified from E. coli expression
T1 construct: gene L2HGDH; residues 41-455, mitochondrial-targeting peptide (1-40) removed; N-terminal His6-SUMO tag cleaved by ULP1; E. coli; tetramer about 178 kDa

[2] = molecular target: T1, dmL2HGDH; experiment: inhibition of L-2-HG oxidation, DCIP reduction at […] nm; format: biochemical; conditions: read-out: % inhibition at 10 mM
[3] = molecular target: dmL2HGDH with Cys77 substituted by alanine (Drosophila melanogaster) (UniProt Q9VJ28); experiment: not stated; tetrameric state of the Cys77 to alanine mutant in solution (Fig. S11E)
[4] = substrate: O=C(O)CC[C@H](O)C(=O)O; experiment: purified protein; format: biochemical, Drosophila melanogaster; conditions: 200 μM phenazine methosulfate, 100 μM DCIP, 50 mM Hepes pH 7.5, about 25 °C, corrected for FAD occupancy
[5] = molecular target: the molecule itself; experiment: SEC-MALS; protein solution 2 mg/ml on Superdex 200 10/300; 20 mM Hepes pH 7.4, 200 mM NaCl; 0.4 ml/min

Row | Molecule | Km [4] [µM] | Vmax [4] [µmol/min/mg] | kcat [4] [s⁻¹] | kcat/Km [4] [M⁻¹ s⁻¹] | also measured
1 | Cc1cc2nc3c(=O)[nH]c(=O)nc-3n(C[C@H](O)[C@H](O)[C@H](O)COP(=O)(O)OP(=O)(O)OC[C@H]3O[C@@H](n4cnc5c(N)ncnc54)[C@H](O)[C@@H]3O)c2cc1C [FAD] |  |  |  |  | crystal structure, 2.85 Å; absorbance at 450 nm [1]: In each monomer, there are an FAD bound at the active site
2 | O=C(O)C[C@H](O)C(=O)O [L-MAL] |  |  |  |  | inhibition at 10000 µM [2]: < 30%
3 | dmL2HGDH with Cys77 substituted by alanine (from UniProt Q9VJ28 41-455) (enzyme) |  |  |  |  | stoichiometry N [3]: 4
4 | Drosophila melanogaster L-2-hydroxyglutarate dehydrogenase (dmL2HGDH), residues 41-455 (enzyme, UniProt Q9VJ28 41-455, looked up, L-2-hydroxyglutarate dehydrogenase, Drosophila melanogaster, residues 41-455; the N-terminal 1 to 40 residues (mitochondrial-targeting peptide) removed; Gene synthesized by Sangon Biotech; also called WT dmL2HGDH; truncated dmL2HGDH; source: E. coli BL21 Codon-Plus (DE3)-RIPL, purified (Ni-NTA, tag removal by ULP1, Superdex 200); not shown: His6, N-terminal, cleaved; SUMO, N-terminal, cleaved) GDYDLVVVGGGIVGAASAREIVLRHPSLKVAVLEKECKLAKHQSGHNSGVIHAGIYYKPGTLKARLCVEGMHLAYAYLDEKKIPYKKTGKLIVATDEKEVKLLKDLEKRGIANNVPDLRMIEGSEIQEIEPYCQGVMALHSPHTGIVDWGLVTEHYGQDFKQCGGDIYLDFNVSKFTETKEGTDYPVTIHGAKPGQTVRTKNVLTCGGLQSDLLAEKTGCPRDPRIVPFRGEYLLLTKEKQHMVKGNIYPVPDPRFPFLGVHFTPRMDGSIWLGPNAVLALKREGYTWGDINLFELFDALRYPGFVKMASKYIGFGLSEMSKSWFINLQIKALQKYIPDITEYDIQRGPAGVRAQAMDLDGNLVDDFVFDRGQGSGALAKRVLHCRNAPSPGATSSLAIAKMIADKIENEFSIGK | 130 ± 8 | 10.2 | 7.76 ± 0.11 | 59700 | stoichiometry N [5]: 4
5 | dmL2HGDH (Drosophila melanogaster; R393A) (protein, residues 41-455, mitochondrial-targeting peptide (1-40) removed; N-terminal His6-SUMO tag cleaved by ULP1; E. coli; tetramer about 178 kDa) GDYDLVVVGGGIVGAASAREIVLRHPSLKVAVLEKECKLAKHQSGHNSGVIHAGIYYKPGTLKARLCVEGMHLAYAYLDEKKIPYKKTGKLIVATDEKEVKLLKDLEKRGIANNVPDLRMIEGSEIQEIEPYCQGVMALHSPHTGIVDWGLVTEHYGQDFKQCGGDIYLDFNVSKFTETKEGTDYPVTIHGAKPGQTVRTKNVLTCGGLQSDLLAEKTGCPRDPRIVPFRGEYLLLTKEKQHMVKGNIYPVPDPRFPFLGVHFTPRMDGSIWLGPNAVLALKREGYTWGDINLFELFDALRYPGFVKMASKYIGFGLSEMSKSWFINLQIKALQKYIPDITEYDIQRGPAGVAAQAMDLDGNLVDDFVFDRGQGSGALAKRVLHCRNAPSPGATSSLAIAKMIADKIENEFSIGK | 240 ± 30 | 5.68 | 4.34 ± 0.15 | 18100 | 
6 | dmL2HGDH (Drosophila melanogaster; S88A) (protein, residues 41-455, mitochondrial-targeting peptide (1-40) removed; N-terminal His6-SUMO tag cleaved by ULP1; E. coli; tetramer about 178 kDa) GDYDLVVVGGGIVGAASAREIVLRHPSLKVAVLEKECKLAKHQSGHNAGVIHAGIYYKPGTLKARLCVEGMHLAYAYLDEKKIPYKKTGKLIVATDEKEVKLLKDLEKRGIANNVPDLRMIEGSEIQEIEPYCQGVMALHSPHTGIVDWGLVTEHYGQDFKQCGGDIYLDFNVSKFTETKEGTDYPVTIHGAKPGQTVRTKNVLTCGGLQSDLLAEKTGCPRDPRIVPFRGEYLLLTKEKQHMVKGNIYPVPDPRFPFLGVHFTPRMDGSIWLGPNAVLALKREGYTWGDINLFELFDALRYPGFVKMASKYIGFGLSEMSKSWFINLQIKALQKYIPDITEYDIQRGPAGVRAQAMDLDGNLVDDFVFDRGQGSGALAKRVLHCRNAPSPGATSSLAIAKMIADKIENEFSIGK | 560 ± 150 | 1.56 | 1.19 ± 0.13 | 2130 | 
